In article PMC10465527 one finds trimeric holoenzyme level relative to wild-type cells (of the levels in wild-type cells) data, which are given here for 1 substance.

The target in this experiment is B55α/δ regulatory subunit of PP2A (human (endogenous in HAP1)) (UniProt P63151). As to the kind of experiment: co-IP; B56α (1D3-E12) or B55α/δ (2G9) antibody crosslinked to protein G-Sepharose, 1 h with lysates of HAP1 wild-type and lcmt1-/- cells; lysis buffer 10% glycerol, 135 mM NaCl, 20 mM Tris pH 8.0, 1% Nonidet P-40; immunoblot, co-precipitated A and C normalised to the B subunit. In general terms: In western blotting, separated proteins are transferred to a membrane and probed.
UniProt P63151, sequence (P63151 whole entry, stated change not applied): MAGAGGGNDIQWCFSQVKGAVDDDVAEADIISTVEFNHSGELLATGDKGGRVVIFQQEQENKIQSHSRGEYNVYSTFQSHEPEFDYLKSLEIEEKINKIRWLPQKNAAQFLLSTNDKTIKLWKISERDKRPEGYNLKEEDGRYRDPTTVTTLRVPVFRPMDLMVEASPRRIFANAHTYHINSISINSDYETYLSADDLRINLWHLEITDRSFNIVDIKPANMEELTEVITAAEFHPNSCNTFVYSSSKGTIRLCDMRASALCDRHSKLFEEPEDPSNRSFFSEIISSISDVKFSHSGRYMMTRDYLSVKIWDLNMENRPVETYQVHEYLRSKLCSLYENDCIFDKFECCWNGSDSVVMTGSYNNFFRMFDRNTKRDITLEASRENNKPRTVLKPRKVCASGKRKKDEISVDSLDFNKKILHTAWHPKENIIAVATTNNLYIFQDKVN

In turn, “non-methylated PP2A-C (catalytic C subunit of PP2A) (from UniProt P67775 1-309) (natural protein)” came in with a trimeric holoenzyme level relative to wild-type cells (of the levels in wild-type cells) of 0.33.
